Experimental data reported in the supplement of paper PMC12764529.
± gives the half width of the 95% confidence interval.

What was measured:
[1] = folding stability dG unfold (combined trypsin and chymotrypsin); higher = more stable
How it was run: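 K50 was inferred by Bayesian fitting of sequencing counts obtained after protease digestion of designed mini-proteins. Unfolding free energy was derived by comparison with a sequence-predicted unfolded-state K50 and a shared folded-state K50, for each protease or both combined. The mini-proteins were under 80 residues, had no cysteine, were carried in a PA-tagged cDNA display construct, and were kept only if AlphaFold2 dimer inter-PAE exceeded 15.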

[2] = folding stability dG unfold from trypsin proteolysis; higher = more stable
Procedure: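 Folding stability of de novo designed mini-proteins (<80 aa, no Cys; designed by TrROS, TrMRF, ProteinMPNN and the joint model) was measured by cDNA display proteolysis with trypsin and chymotrypsin. Each protease was used at 11 concentrations in a threefold dilution series plus a no-protease condition. K50 was inferred by Bayesian fitting of sequencing counts, and dG unfold was derived against a sequence-predicted unfolded-state K50 (Tsuboyama et al. method). Sequences shown include variable-length N-terminal GS-type padding (SAGGSAGG...) inside a display construct carrying a PA tag. Rows were kept only if the AF2 dimer inter-PAE was >15, to exclude likely homo-oligomers.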

## SAGGSSMLSPSESLPLPPDEDVEVSLPSPLSAKLTYDPATGTVSVTVTDPNNPGVPLSSTTRPLTASAGGSA [r2_266_JUSTAS]
[1]
  folding stability dG unfold: -0.203 ± 0.22 kcal/mol
[2]
  folding stability dG unfold: 0.662 ± 0.037 kcal/mol

## SAGGTKYTVSLRPPPTALPSREFTDSPLEIVEALPEDTTEATVTVDNNSTSTTVTFTTKEDLIAAVASSAGG [r13_299_JUSTAS]
[1]
  folding stability dG unfold: -0.14 ± 0.33 kcal/mol
[2]
  folding stability dG unfold: 0.00719 ± 0.14 kcal/mol

## SAGGTPIGDGQTGESSTFDEEVTDPVTGEKVKVKVTIPVTIDPETGKTVRTVTITNPLEGKTTTTLTLSAGG [r13_262_JUSTAS]
[1]
  folding stability dG unfold: < -1 kcal/mol
[2]
  folding stability dG unfold: -0.379 ± 0.13 kcal/mol

## SAGGWIPIDEIKDLLDNGKPMPLEQIVKEIQKDFGYPVTIEEDDDSFWIHVENPNTGEPREEIEIDPSAGGS [r8_105_TrROS]
[1]
  folding stability dG unfold: -0.392 ± 0.38 kcal/mol
[2]
  folding stability dG unfold: 0.354 ± 0.11 kcal/mol

## SAGGYDKEGKPIRVVEINIPPDQPDTILKFAREEIDNNRWDIIHITSPNQVKWIKQAFPEKGIPIHIQSAGG [r13_353_TrROS]
[1]
  folding stability dG unfold: -0.167 ± 0.38 kcal/mol
[2]
  folding stability dG unfold: 0.311 ± 0.3 kcal/mol

## SAGKVEVKVDEETGTVTVTVEVNGELVEKKVEVKPPPPVKVFSAEELRERNPELKKLLEENPDKLVVLESAG [r5_957_TrROS_Hall]
[1]
  folding stability dG unfold: < -1 kcal/mol
[2]
  folding stability dG unfold: -0.473 ± 0.26 kcal/mol

## SAGMEAEAERIAEELERELPPTYRITSITVTPQPDNTWVAPITIEKVDAEGRVLGPSTVTVTLPPGLGSAGG [r19_28_JUSTAS]
[1]
  folding stability dG unfold: -0.452 ± 0.14 kcal/mol
[2]
  folding stability dG unfold: 0.494 ± 0.044 kcal/mol

## SAGMEIKIEKLEDGTYKITIKLYNKETNEEIEEIEIEVKKLKDGTYKVKIKIKNKETGKEFELEFEIKPSAG [r5_610_TrROS_Hall]
[1]
  folding stability dG unfold: > 6 kcal/mol
[2]
  folding stability dG unfold: 4.02 ± 0.34 kcal/mol

## SAGMKELVLVERDAPVLGVYLDPETGRPRLEPRPVPVVVVVEVEPDSEAARELAEKLAPEDVRVEVLPASAG [r5_468_TrMRF]
[1]
  folding stability dG unfold: -0.483 ± 0.24 kcal/mol
[2]
  folding stability dG unfold: 0.164 ± 0.05 kcal/mol

## SAGMKFKPGAKVEVYNKKTKKKIVLPVEELRKLAREKFGVETEEERLAEAIKEKAKENGFEIVKIEPVSAGG [r19_67_TrROS_Hall]
[1]
  folding stability dG unfold: -0.0445 ± 0.44 kcal/mol
[2]
  folding stability dG unfold: -0.166 ± 0.35 kcal/mol

## SAGMSSSEVIDIDAGPEKLKELVAKIKKESPNYTIVVTDPETGKPTLLDPSELKNIPGPVKLTITKYPQSAG [r5_437_JUSTAS]
[1]
  folding stability dG unfold: < -1 kcal/mol
[2]
  folding stability dG unfold: -1.16 ± 0.66 kcal/mol

## SAGMTTETTEKTAPDGKTRTTTVTYPSEEKAADTTTVVVTETPVETDGSERILTTTTVYKNGVKVATTGSAG [r14_958_JUSTAS]
[1]
  folding stability dG unfold: < -1 kcal/mol
[2]
  folding stability dG unfold: -0.851 ± 0.56 kcal/mol

## SAGNIKKGSIYMPEDGWMIKIEYPDPGKEIHIPFDDDLSEIKDNLEEPGFEPVAVEVEPFPPGQPMEISAGG [r19_386_TrROS]
[1]
  folding stability dG unfold: < -1 kcal/mol
[2]
  folding stability dG unfold: -1.05 ± 0.22 kcal/mol

## SAGNPKIIEEETIPMPDGGPMKIYVDPEAPRIEIYNPDNGKPEEFPIPPGEKLEFPMPPDGWMTVKVLSAGG [r19_118_TrROS]
[1]
  folding stability dG unfold: < -1 kcal/mol
[2]
  folding stability dG unfold: -0.279 ± 0.14 kcal/mol

## SAGSMEVKVEIPEEVLKKIESAPPGTVVEYTETVTITTTTTIPGPGNPVPLTSTTPSPIKLTYTKPSSPSAG [r5_946_JUSTAS]
[1]
  folding stability dG unfold: -0.915 ± 0.31 kcal/mol
[2]
  folding stability dG unfold: -0.608 ± 0.06 kcal/mol

## SAKPIPAKDITINMHPPPGGNFNFEIELDDKEIGEHPFKSPEDMQEGMKEIAKELAALLGPDDIKIKPWSAG [r14_791_TrROS]
[1]
  folding stability dG unfold: -0.0161 ± 0.25 kcal/mol
[2]
  folding stability dG unfold: 0.4 ± 0.075 kcal/mol

## SAKVFTAEEIKALAEELEKAGLEVEAVVLDKDGKIVAVAPKELLKPPPVEEVKEVKVEVEDDPEKLKAAKSA [r9_568_TrROS_Hall]
[1]
  folding stability dG unfold: < -1 kcal/mol
[2]
  folding stability dG unfold: -0.442 ± 0.97 kcal/mol

## SALINLKKEDVEKLVKALEKEGNYKVKIKPVKVVYKPKDGSKKPIGAVKIEVIDPDNPKSLLDKIKKAGSAG [r14_628_TrMRF]
[1]
  folding stability dG unfold: < -1 kcal/mol
[2]
  folding stability dG unfold: -1.29 ± 0.62 kcal/mol

## SAMIKIEIVLPEEDLEKLLESEEVKELAKELEKKTGLKITSIKIEKKEVEVNGEKKKVVVITIEIEPEPSAG [r14_819_TrROS_Hall]
[1]
  folding stability dG unfold: > 6 kcal/mol
[2]
  folding stability dG unfold: 3.42 ± 0.24 kcal/mol

## SAMKTTETITVTVEMEPEVAEEVAEEIAEKIEKEKNYEITEVKVSVFPTDGKYVVRVPIKITYPTPELKSAG [r14_219_JUSTAS]
[1]
  folding stability dG unfold: < -1 kcal/mol
[2]
  folding stability dG unfold: -0.771 ± 0.42 kcal/mol

## SAMTTLEKEGDVTITRTKLPDGTVVVTTEVPESRPLAELTTETITIYPDGTVTTTSQTLTLDPATGRLGSAG [r14_724_JUSTAS]
[1]
  folding stability dG unfold: -0.567 ± 0.23 kcal/mol
[2]
  folding stability dG unfold: -0.146 ± 0.075 kcal/mol
